System: Bacillus subtilis
Assay: cleaved RNA product abundance (RNA/gDNA barcode ratio) relative to median wild-type variant (ratio to wild type); higher = more accumulation of the downstream cleavage product
Experimental: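 MPRA in B. subtilis. Mutagenized RNase Y cleavage-site regions (9% mutation rate) were inserted into a barcoded reporter mRNA (truncated aprE or tetM). Cells were grown in LB at 37°C to OD600 0.3. The cleaved RNA isoform was gel-purified and its barcodes counted; the RNA:gDNA barcode ratio was normalised to the median wild-type variant, and the median over barcodes is reported per variant. The printed sequence is the variable window only; the reporter flanks are not printed.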

[1] = experiment (reporter, strain, medium): exp 4a: truncated aprE reporter, strain BJT201 with 2% xylose (RNase J1 expressed), cleavage site: cggR-gapA (positions -7 to +36 mutated)
[2] = experiment (reporter, strain, medium): exp 8a: truncated aprE reporter, strain BJT201 with 2% xylose (RNase J1 expressed), cleavage site: glnRA (positions -5 to +31 mutated)
[3] = experiment (reporter, strain, medium): exp 6: tetM reporter, strain 168, cleavage site: cggR-gapA (positions -7 to +36 mutated)
[4] = experiment (reporter, strain, medium): exp 2b: truncated aprE reporter, strain BJT200, cleavage site: cggR-gapA (positions -7 to +36 mutated)

## ACAGACGAAGGAGCCGCAAAGAAGTGATTAAGGGATGAATAATCCCTCTATATAAATATCTCTCACTTATTTAAA
[1]
  cleaved RNA product abundance: 0.377

## CGACATGTCCCGCTTCTTTCATTAATCCGTTAGCAACTCATTTGCTATATACATTTACCTTTTAAGAGGAGGAAT
[2]
  cleaved RNA product abundance: 1.46

## ACAGACGAAGGAGCCGCAAAGAAGTTATTAAGATATGAATAATCCCTAAATATAAATATCTCTCACTTATTTAAA
[1]
  cleaved RNA product abundance: 0.101

## ACAGACGAAGGAGCCGCAAAGAAGTTATTAAGTGATGAATAATCACTCAATATAAATAACTCTCACTTATTTAAA
[1]
  cleaved RNA product abundance: 1.16

## CGACATGTCCCGCTTCTTTCATTAATCCGTTAGCAACTGTTTTGCCATATACATTTACCGTTTAAGAGGAGGAAT
[2]
  cleaved RNA product abundance: 0.539

## CGACATGTCCCGCTTCTTTCATTAATCCGTTAGCAACTGTTTTACTATATACAATTACTTTTTAAGAGGAGGAAT
[2]
  cleaved RNA product abundance: 0.712

## CGACATGTCCCGCTTCTTTCATTAATCCGTTAGCAACTGTTTTAAAATATACATTTACCTTTTAAGAGGAGGAAT
[2]
  cleaved RNA product abundance: 0.571

## ACAGACGAAGGAGCCGCAAAGAAGTTATTAATGGATGAATACTCCCTCAATATAAATATCTCTCACTTATTTAAA
[1]
  cleaved RNA product abundance: 0.0655

## ACAGACGAAGGAGCCGCAAAGAAGGTATTAAGGGATGAATAATCCCTCAATATAAATTTCTCTCACTTATTTAAA
[1]
  cleaved RNA product abundance: 0.849

## ACAGACGAAGGAGCCGCAAAGAACTTATTAAGGGATGAATGATCCCTCAATATAAATATCTCTCACTTATTTAAA
[1]
  cleaved RNA product abundance: 0.282

## ACAGACGAAGGAGCCGCAAAGAAGATATTAAGGGATAAATAATCCCTCAATATAAATATCTCTCACTTATTTAAA
[1]
  cleaved RNA product abundance: 0.78
[3]
  cleaved RNA product abundance: 0.468

## ACAGACGAAGGAGCCGCAAAGAAGTTATTAAGGGATGAATATTCCCTCAAAATAAATATCTCTCACTTATTTAAA
[4]
  cleaved RNA product abundance: 0.231
[1]
  cleaved RNA product abundance: 0.224

## CGACATGTCCCGCTTCTTTCATTAATCCGTTACCAACTGTTGTGCTATATACATTTACCTTTTAAGAGGAGGAAT
[2]
  cleaved RNA product abundance: 0.182

## ACAGACGAAGGAGCCGCGAAGAAGTTATTAAAGGATGAATAATCCCTCAATATAAATATCTCTCACTTATTTAAA
[1]
  cleaved RNA product abundance: 0.258

## ACAGACGAAGGAGCCGCAAAGAAATTATTAAGGGATGGATAATCCCTCAATATAAATATCTCTCACTTATTTAAA
[1]
  cleaved RNA product abundance: 0.62

## ACAGACGAAGGAGCCGCAAATAAGTTATTAAGGGATGAATAATCCCTCAATATAAATGTCTCTCACTTATTTAAA
[1]
  cleaved RNA product abundance: 0.45

## CGACATGTCCCGCTTCTTTCATTAATCCGTTAGCAACTTGTTTTGCTATATACATTTACCTTTTAAGAGGAGGAA
[2]
  cleaved RNA product abundance: 1.01

## ACAGACGAAGGAGCCGCAAAGAAGTTATTAAAGGATGAATAAACCCTCAATATAAATATCTCTCACTTATTTAAA
[4]
  cleaved RNA product abundance: 0.115
[1]
  cleaved RNA product abundance: 0.101

## ACAGACGAAGGAGCCGCAAAGAAGTTATTAAGCGATGAATAATCCCTCAATATAGATATCTCTCACTTATTTAAA
[1]
  cleaved RNA product abundance: 0.0736

## ACAGACGAAGGAGCCGCCAAGAAGTTATTAAGGGATGAATAATCCCTCAATATAAATATCTCTCACTTATTTAAA
[4]
  cleaved RNA product abundance: 0.985
[1]
  cleaved RNA product abundance: 0.872

## ACAGACGAAGGAGCCGCAAAGAAGTTATTAAGGGATGAATTATTCCTCAATATAAATATCTCTCACTTATTTAAA
[1]
  cleaved RNA product abundance: 0.215

## ACAGACGAAGGAGCCGCAACGAAGTTATTAATGGATGAATAATCCCTCAATATAAATATCTCTCACTTATTTAAA
[1]
  cleaved RNA product abundance: 0.141

## ACAGACGAAGGAGCCGCAAAGAAGTTATTTAAGGGATGAATAATCCCTCAATATAAATATCTCTCACTTATTTAA
[1]
  cleaved RNA product abundance: 0.315

## ACAGACGAAGGAGCCGCAAAAAAGTTATTAAGGGTTGAATAATCCCTCAATATAAATATCTCTCACTTATTTAAA
[4]
  cleaved RNA product abundance: 0.373
[1]
  cleaved RNA product abundance: 0.512

## CGACATGTCCCGCTTCTTTCATTAATCCGTTAGCAATTTTTTTGCTATATACATTTACCTTTTAAGAGGAGGAAT
[2]
  cleaved RNA product abundance: 1.16

## CGACATGTCCCGCTTCTTTCATTAATCCGTTAGCAATTGTTTAGCTATATACATTTACCTTTTAAGAGGAGGAAT
[2]
  cleaved RNA product abundance: 0.468

## CGACATGTCCCGCTTCTTTCATTAATCCGTTAGCAACTGTTTTGCTATATAAATATACCTTTTAAGAGGAGGAAT
[2]
  cleaved RNA product abundance: 1.3

## ACAGACGAAGGAGCCGCAAAGACGTTATTAAGGGATGAATAATCCATCAATATAAATATCTCTCACTTATTTAAA
[4]
  cleaved RNA product abundance: 0.156
[1]
  cleaved RNA product abundance: 0.312

## ACAGACGAAGGAGCCGCAAAGTAGTTATTAAGCGATGAATAATCCCTCAATATAAATATCTCTCACTTATTTAAA
[4]
  cleaved RNA product abundance: 0.0839
[1]
  cleaved RNA product abundance: 0.0692

## CGACATGTCCCGCTTCTTTCATTAATCCGTTAGCATCTTTTTTGCTATATACATTTACCTTTTAAGAGGAGGAAT
[2]
  cleaved RNA product abundance: 0.995

## ACAGACGAAGGAGCCGCAAAGAAGTTATTAAGAGATGAATAATCCCTCATTATAAATATCTCTCACTTATTTAAA
[1]
  cleaved RNA product abundance: 0.177

## ACAGACGAAGGAGCCGCAAGGAAGTAATTAAGGGATGAATAATCCATCAATATAAATATCTCTCACTTATTTAAA
[4]
  cleaved RNA product abundance: 0.122

## CGACATGTCCCGCTTCTTTCATTAATCTGTTAGCAACTGTTTTGCCATATACATTTACCTTTTAAGAGGAGGAAT
[2]
  cleaved RNA product abundance: 0.108

## CGACATGTCCCGCTTCTTTCATTATTCCATTAGCAACTGTTTTGCTATATACATTTACCTTTTAAGAGGAGGAAT
[2]
  cleaved RNA product abundance: 1.21

## CGACATGTCCCGCTTCTTTCATTAATCCGTTAGCAACTGTTTTGCTATAAAAATTTACCTTTTAAGAGGAGGAAT
[2]
  cleaved RNA product abundance: 0.405

## CGACATGTCCCGCTTCTTTCATTATTCCGTTATCAACTGTTTTGATATATACATTTACCTTTTAAGAGGAGGAAT
[2]
  cleaved RNA product abundance: 0.385

## ACAGACGAAGGAGCCGCAAAGACGTTATTAAGCGATGAATAATCCCTCAATATAAATATCTCTCACTTATTTAAA
[1]
  cleaved RNA product abundance: 0.155

## ACAGACGAAGGAGCCGCAAAGAAGTTATTAAGGGATGAATAATCCCTCAATAAAAATATCTCTCACTTATTTAAA
[4]
  cleaved RNA product abundance: 0.172
[1]
  cleaved RNA product abundance: 0.147
[3]
  cleaved RNA product abundance: 0.28

## ACAGACGAAGGAGCCGCAAAGAAGTTATTAAGGGATGAATAATCCCTGAATATAAATAGCTCTCACTTATTTAAA
[1]
  cleaved RNA product abundance: 0.256

## CGACATGTCCCGCTTCTTTCATTAATCCTTTAGCAACTGCTTTGCTATATACATTTACCTTTTAAGAGGAGGAAT
[2]
  cleaved RNA product abundance: 0.292

## CGACATGTCCCGCTTCTTTCATTAATCCGTTAGAAACTGTTTTGCTATATACATTTACTTTTTAAGAGGAGGAAT
[2]
  cleaved RNA product abundance: 0.331

## ACAGACGAAGGAGCCGCAAAGAAGTTATTAAGGGATGTATAATCCCCCAATATAAATATCTCTCACTTATTTAAA
[4]
  cleaved RNA product abundance: 0.205

## CGACATGTCCCGCTTCTTTCATTAATCCGTTATCAACTGTATTGCTATATACATTTACCTTTTAAGAGGAGGAAT
[2]
  cleaved RNA product abundance: 0.306

## ACAGACGAAGGAGCCGCAAAGAAGGTATTAAGGGATGAATAATCCCCCAATATAAATATCTCTCACTTATTTAAA
[1]
  cleaved RNA product abundance: 0.378

## CGACATGTCCCGCTTCTTTCATTAATCCGTTAGCAACTATTTTGCTATATACATCTACCTTTTAAGAGGAGGAAT
[2]
  cleaved RNA product abundance: 0.944

## ACAGACGAAGGAGCCGCAAAGAAGTTATTAAGGGAAGAATAATCCCTAAATATAAAAATCTCTCACTTATTTAAA
[1]
  cleaved RNA product abundance: 0.415

## CGACATGTCCCGCTTCTTTCATTAATCCGTTAGCAACTGTTTTGCTATATAAATTTACGTTTTAAGAGGAGGAAT
[2]
  cleaved RNA product abundance: 1.02

## ACAGACGAAGGAGCCGCAAAGAAGTTATTAAGGAATGAATAATCCCTCAATATAAATACCTCTCACTTATTTAAA
[4]
  cleaved RNA product abundance: 0.0997

## ACAGACGAAGGAGCCGCAAAGAAGTTATTAAGGGATAAATAATCCGTCAATATAAATATCTCTCACTTATTTAAA
[4]
  cleaved RNA product abundance: 0.132
[1]
  cleaved RNA product abundance: 0.166

## CGACATGTCCCGCTTCTTTCATTAATCCGTTAGCAACAGTTTTGCTATACACATTTACCTTTTAAGAGGAGGAAT
[2]
  cleaved RNA product abundance: 0.557

## CGACATGTCCCGCTTCTTTCATTAATACGTTAGCAACTGTTTTGCTATATCCATTTACCTTTTAAGAGGAGGAAT
[2]
  cleaved RNA product abundance: 0.193

## ACAGACGAAGGAGCCGCAAAGATGTTATTAAAGGATGAATAATCCCTCAATATAAATATCTCTCACTTATTTAAA
[1]
  cleaved RNA product abundance: 0.129

## CGACATGTCCCGCTTCTTTCATTATTCCGTTAGCAATTGTTTTGCTATATACATTTACCTTTTAAGAGGAGGAAT
[2]
  cleaved RNA product abundance: 1.83

## ACAGACGAAGGAGCCGCAAAGAAGCTATTAAGGGATGAATAATCCCTCAATATAAATAACTCTCACTTATTTAAA
[1]
  cleaved RNA product abundance: 0.674

— the supplement of paper PMC11780869
